The source of these data is the RNAGym collection of RNA variant scans (doi:10.7554/elife.80360).

Sequences and labels used below:
B1: CPEB3 Ribozyme (parent)
chain: GGGGGCCACAGCAGAAGCGUUCACGUCGCGGCCCCUGUCAGAUUCUGGUGAAUCUGCGAAUUCUGCUGU

The data set covers variants of B1. Put plainly: self-cleavage, relative activity (ratio to wild type); higher = more cleavage; co-transcriptional.
With G28C G48U, the self-cleavage turned out to be 0.202.

Take G28C G48A: the self-cleavage is 0.195.

In the case of G28A G47U, the self-cleavage came out at 0.262.

As for G28A G47C, the self-cleavage worked out at 0.212.

On to C29A U64C, for which the self-cleavage was determined as 0.25.

On to C29A U64A, for which the self-cleavage worked out at 0.223.

For the variant C29A U64G, the self-cleavage stood at 0.292.

As to G28U G31U, the self-cleavage was 0.171.

As to G28U G31C, the self-cleavage came to 0.141.

Consider G28C A59C, for which the self-cleavage is 0.16.

For the variant G28C A59G, the self-cleavage turned out to be 0.132.

G28C A59U: the self-cleavage was found to be 0.189.

For G28A C63G, the self-cleavage worked out at 0.178.

For G28U U38G, the self-cleavage came to 0.161.

Regarding G28U U38C, the self-cleavage was 0.136.

Turning to G28U U38A, the self-cleavage was determined as 0.164.

On to C29A G48C, for which the self-cleavage was 0.728.

Regarding C29A G48A, the self-cleavage is 0.777.

In the case of C29A G48U, the self-cleavage stood at 0.755.

Regarding C29A G31A, the self-cleavage worked out at 0.296.

For C29A G31C, the self-cleavage amounted to 0.175.

Regarding C29A G31U, the self-cleavage came to 0.221.

Regarding G28A U43A, the self-cleavage came out at 0.156.

With G28A U43G, the self-cleavage was 0.0959.

In the case of G28A U43C, the self-cleavage is 0.219.

Consider G28C U38C, for which the self-cleavage is 0.199.

Turning to G28A G30C, the self-cleavage turned out to be 0.167.

Regarding G28C C39G, the self-cleavage came to 0.198.

For C29G A52U, the self-cleavage was found to be 0.504.

With C29G A52G, the self-cleavage is 0.53.

Consider G28C U43C, for which the self-cleavage was determined as 0.141.

Regarding G28C U43A, the self-cleavage was 0.109.

As for G28C U43G, the self-cleavage is 0.255.

As to G28C C35A, the self-cleavage worked out at 0.176.

Consider G28C C35U, for which the self-cleavage came out at 0.178.

Consider G28A U61A, for which the self-cleavage stood at 0.193.

Regarding G28A U61C, the self-cleavage was 0.137.

With C29G A42U, the self-cleavage came out at 0.385.

For C29G A42G, the self-cleavage is 0.445.

G28C G41C: the self-cleavage stood at 0.178.

On to G28C G41A, for which the self-cleavage was found to be 0.201.

Take G28C G41U: the self-cleavage was found to be 0.152.

On to C29A C39U, for which the self-cleavage was 0.372.

As to C29A C39G, the self-cleavage amounted to 0.431.

Turning to G28A U55C, the self-cleavage was determined as 0.214.

As for G28U U46G, the self-cleavage was 0.187.

Turning to G28U U46A, the self-cleavage worked out at 0.163.

As for G28U U46C, the self-cleavage was 0.19.

On to G28U U61C, for which the self-cleavage amounted to 0.11.

For G28U U61G, the self-cleavage was found to be 0.221.

With G28C U61C, the self-cleavage was 0.134.

Consider G28U U62G, for which the self-cleavage came to 0.189.

With G28U U62A, the self-cleavage was determined as 0.216.

As for G28A G50U, the self-cleavage was 0.159.

In the case of G28A G50A, the self-cleavage came to 0.195.

In the case of C29A U61A, the self-cleavage was determined as 0.543.

G28U A42U: the self-cleavage stood at 0.149.

On to G28U A42G, for which the self-cleavage was determined as 0.112.

For G28A G41C, the self-cleavage was 0.177.

As for C29G C33A, the self-cleavage is 0.212.

Take C29G C33G: the self-cleavage worked out at 0.16.

As for G28U U64A, the self-cleavage worked out at 0.157.

Consider G28U U64G, for which the self-cleavage was determined as 0.147.

With C29A, the self-cleavage was found to be 0.777.

In the case of C29G, the self-cleavage came out at 0.618.

As to C29G C66U, the self-cleavage was 0.418.

On to C29G C66A, for which the self-cleavage worked out at 0.312.

In the case of C29A C57A, the self-cleavage came out at 0.279.

As for C29A C57G, the self-cleavage came out at 0.225.

In the case of C29G C57A, the self-cleavage stood at 0.215.

For the variant C29G C57U, the self-cleavage came out at 0.206.

Turning to C29G C57G, the self-cleavage is 0.183.

In the case of G28U C34A, the self-cleavage turned out to be 0.181.

Consider C29A G41C, for which the self-cleavage is 0.195.

In the case of G28A G68U, the self-cleavage was determined as 0.195.

On to G28A G68C, for which the self-cleavage came to 0.268.

G28U G37C: the self-cleavage stood at 0.172.

With G28U G37U, the self-cleavage came out at 0.166.

As for G28C C29A, the self-cleavage was determined as 0.144.

In the case of G28C C29G, the self-cleavage worked out at 0.153.

Take G28C C29U: the self-cleavage was determined as 0.137.

As for G28C C34U, the self-cleavage turned out to be 0.136.

For G28C C34G, the self-cleavage came to 0.245.

On to C29A G47C, for which the self-cleavage was 0.716.

On to C29A G47U, for which the self-cleavage was 0.817.

In the case of G28C U44C, the self-cleavage is 0.223.

In the case of G28C U44A, the self-cleavage was determined as 0.157.

As for C29A G58A, the self-cleavage stood at 0.435.

With G28U G47A, the self-cleavage was determined as 0.173.

On to G28U G47C, for which the self-cleavage was 0.205.

On to G28U G47U, for which the self-cleavage was 0.151.

For the variant C29A U55C, the self-cleavage was found to be 0.38.

As for C29A U55A, the self-cleavage worked out at 0.273.

On to G28C U67G, for which the self-cleavage is 0.295.

In the case of G28C U67C, the self-cleavage is 0.168.

Take C29A U46G: the self-cleavage was found to be 0.759.

As for G28U G65C, the self-cleavage was found to be 0.132.

Regarding G28A G56U, the self-cleavage was found to be 0.167.

G28A G56C: the self-cleavage was found to be 0.235.

Turning to G28A G56A, the self-cleavage was determined as 0.164.

For C29G C54A, the self-cleavage is 0.259.

For the variant G28C G58C, the self-cleavage came out at 0.158.

For C29A C34U, the self-cleavage came out at 0.702.

Turning to C29A C34G, the self-cleavage amounted to 0.22.

Turning to C29A C34A, the self-cleavage was determined as 0.334.

As to C29A A40U, the self-cleavage turned out to be 0.296.

As to C29A A40C, the self-cleavage is 0.214.

With C29A A40G, the self-cleavage was found to be 0.607.

As to G28U U43C, the self-cleavage worked out at 0.176.

G28C G37A: the self-cleavage amounted to 0.117.

In the case of G28C G37C, the self-cleavage is 0.186.

With G28C G37U, the self-cleavage turned out to be 0.129.

In the case of G28U G41C, the self-cleavage was 0.163.

Consider G28U G41U, for which the self-cleavage worked out at 0.155.

As for G28U G41A, the self-cleavage is 0.166.

As to G28U U67G, the self-cleavage amounted to 0.203.

G28U U67A: the self-cleavage was 0.168.

Consider G28U U67C, for which the self-cleavage turned out to be 0.224.

For the variant G28A U62A, the self-cleavage amounted to 0.203.

G28A U62C: the self-cleavage was found to be 0.218.

Regarding G28A U38C, the self-cleavage is 0.196.

Take G28A U38G: the self-cleavage was found to be 0.147.

As for C29G G31A, the self-cleavage came out at 0.146.

In the case of C29G G31U, the self-cleavage came to 0.131.

For the variant G28U C66G, the self-cleavage worked out at 0.16.

With G28U C66A, the self-cleavage was 0.153.

Turning to G28U C66U, the self-cleavage is 0.168.

As for G28A C66G, the self-cleavage was determined as 0.196.

Consider G28U C63G, for which the self-cleavage amounted to 0.254.

In the case of G28U C63A, the self-cleavage amounted to 0.189.

As to G28U C63U, the self-cleavage came to 0.187.

For C29G C63A, the self-cleavage is 0.23.

In the case of C29G C63U, the self-cleavage was 0.418.

As to G28C G47U, the self-cleavage was 0.167.

G28C G47C: the self-cleavage came out at 0.258.

G28C G47A: the self-cleavage came to 0.187.

As to C29A G37U, the self-cleavage came to 0.147.

Take C29A G37C: the self-cleavage amounted to 0.186.

C29A C33A: the self-cleavage is 0.373.

For G28C G31C, the self-cleavage stood at 0.172.

For the variant G28C G31U, the self-cleavage was 0.21.

For G28C G31A, the self-cleavage was 0.139.

On to G28U U53G, for which the self-cleavage turned out to be 0.22.

As for G28U U53A, the self-cleavage came to 0.188.

For G28A U64A, the self-cleavage came out at 0.245.

Turning to C29A A42C, the self-cleavage was found to be 0.409.

Consider C29A A42G, for which the self-cleavage worked out at 0.533.

C29A A42U: the self-cleavage was 0.517.

Consider G28A G37C, for which the self-cleavage came out at 0.193.

In the case of G28A G37U, the self-cleavage was 0.186.

For G28A G37A, the self-cleavage turned out to be 0.157.

Turning to G28A G31C, the self-cleavage was determined as 0.208.

For C29A C32G, the self-cleavage is 0.155.

For the variant C29A C32U, the self-cleavage worked out at 0.698.

Consider C29A C54A, for which the self-cleavage was determined as 0.312.

As to G28C C45G, the self-cleavage worked out at 0.208.

With G28U G58C, the self-cleavage was 0.177.

As for G28U G58A, the self-cleavage came out at 0.185.

In the case of C29G C32G, the self-cleavage came out at 0.18.

Take C29G C32A: the self-cleavage turned out to be 0.196.

With G28C U36G, the self-cleavage worked out at 0.189.

Turning to G28C U36A, the self-cleavage worked out at 0.162.

Regarding G28C U36C, the self-cleavage came out at 0.147.

Consider G28U A40C, for which the self-cleavage turned out to be 0.225.

Take G28U A40G: the self-cleavage was found to be 0.232.

As to C29A U67C, the self-cleavage came out at 0.736.

For the variant C29A U67A, the self-cleavage was 0.668.
